Columns and labels:
[1] = Catechol oxidase activity assay: initial rate of 3-methoxycatechol oxidation at 400 nm (pH, copper and temperature optima); format: biochemical; settings: for pHopt: 3-methoxycatechol oxidation, room temperature, 10 μM CuSO4, Carmody buffers pH3-9; for T range / pH range: >50% of maximum activity; for [CuSO4] range: >90% of maximum activity; for Topt: A400 after 1 h incubation, 20 to 70° C., 50 mM Bis-Tris pH 7.0, 20 or 50 μM copper; for [CuSO4]opt: at optimal pH, 50 mM Bis-Tris buffer pH 7.0, CuSO4 varied 1-1000 μM
Method: PPO activity was determined by measuring the initial rate of 3-methoxycatechol oxidation at 400 nm (extinction coefficient used: ε 1200 M^−1cm^−1). One unit of activity is defined as the amount of PPO activity that oxidizes 1 μmol of 3-methoxycatechol to quinone per minute. Substrate was used at a concentration of 4 mM.
The pH optima were determined by measuring the initial rate of 3-methoxycatechol oxidation with varying pHs, at room temperature and using a CuSO4 concentration of 10 μM. The pH was varied in the range of pH3-9 using Carmody buffers. Enzyme loading was applied resulting in A400 absorbance values in the range of 0.1-1. Protein concentration was determined using the BCA method.
Optimal copper concentrations for the PPOs were determined at the optimal pH by varying the concentration of CuSO4 in the range of 1-1000 μM. In these experiments the pH was controlled using 50 mM Bis-Tris buffer pH 7.0.
Temperature optima were determined by measuring A400 absorbance after 1 h incubation at temperatures in the range of 20 to 70° C. In these experiments the pH was controlled using 50 mM Bis-Tris buffer pH 7.0. Copper concentrations of (20 or 50 μM) were used to prevent chemical oxidation as background activity at higher copper concentrations.

[2] = Conversion of syringic acid, sinapic acid and syringol by crude PPOs, absorbance at 400 nm; format: biochemical; settings: 4 mM substrate, crude PPO 8.2 μg/mL, pH 6.0 or 7.0, 50 μM CuSO4, room temperature, 2, 22 and 118 h
Method: Syringic acid, sinapic acid and syringol (4 mM) were incubated with crude PPO2, 4, 6 and 7 from Example 5 in 100 mM BisTris buffer pH 6.0 or 7.0 with 50 μM CuSO4. Crude PPOs were dosed on target protein with a final concentration of 8.2 μg/mL. Substrate blanks prepared without the addition of enzyme and enzyme blanks without the addition of substrate were included. Incubations were performed in microtiterplates with a total reaction volume of 150 μL at room temperature for approximately 120 h. After 2, 22 and 118 h absorbance at 400 nm was measured.

[3] = biological target: T1, RAC incubated with LPMO9B (Thermothelomyces thermophilus, UniProt G2QCJ3); assay: RAC hydrolysis assay with LPMO9B and PPO7 or AbTyr in the presence of phenolic reducing agents; format: biochemical, Myceliophthora thermophila; settings: for Activity: total release of non-oxidized and C1-oxidized gluco-oligosaccharides from RAC: LPMO9B alone = 100%, or with added enzyme, pH 5.0, 50° C., 24 h
T1 construct: made in house; host or cells: Myceliophthora thermophila C1 strain W1L#100.1Δpyr5ΔAlp1
T1 sequence (G2QCJ3 19-323): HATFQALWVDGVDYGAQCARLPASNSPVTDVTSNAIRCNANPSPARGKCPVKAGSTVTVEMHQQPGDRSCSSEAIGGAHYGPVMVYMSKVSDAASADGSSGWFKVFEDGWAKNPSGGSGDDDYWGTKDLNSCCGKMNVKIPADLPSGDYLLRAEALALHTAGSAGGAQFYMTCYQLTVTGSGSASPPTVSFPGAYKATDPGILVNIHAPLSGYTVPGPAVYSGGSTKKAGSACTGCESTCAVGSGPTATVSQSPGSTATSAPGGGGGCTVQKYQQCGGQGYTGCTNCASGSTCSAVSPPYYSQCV
Method: Phenolic reducing agents were obtained from Sigma-Aldrich (St. Louis, Mo., USA). RAC was prepared as described above and dissolved in 50 mM phospate buffer (pH 5.0) to a final concentration of 1.5 mg/ml. Copper chloride was added to a final concentration of 2.5 μM and a phenolic reducing agent to a final concentration of 2 mM. LPMO9B (5 μg/ml) with or without PPO7 (5 μg/ml) or AbTyr (7.5 U/ml) were added and incubated for 24 h at 50° C. in a head-over-tail rotator in portions of 1 mL total volume (Stuart® rotator, Bibby Scientific LTD, Stone, UK) at 20 rpm. Products were analysed by HPAEC and MALDI-TOF MS as described previously. (Frommhagen M, Sforza S, Westphal A H, Visser J, Hinz S W, Koetsier M J et al. Discovery of the combined oxidative cleavage of plant xylan and cellulose by a new fungal polysaccharide monooxygenase. Biotechnology for Biofuels. 2015; 8:101. doi:10.1186/s13068-015-0284-1). The Activity denoted as Activity * represents total release of non-oxidized and C1-oxidized gluco-oligosaccharides from RAC incubated with LPMO9B in the presence of a phenolic reducing agent and with addition of either AbTyr or PPO7. […] Standard deviations were less than 2%.

[4] = biological target: T1, RAC incubated with LPMO9B; assay: RAC hydrolysis assay with LPMO9B and PPO2, PPO7 or AbTyr in the presence of sinapic acid or syringic acid; format: biochemical, Myceliophthora thermophila; settings: for Activity: total release of non-oxidized and C1-oxidized gluco-oligosaccharides from RAC: LPMO9B 5 μg/ml alone = 100%, or with added enzyme, pH 5.0, 50° C., 24 h
Method: Reducing agents sinapic acid and syringic acid were obtained from Sigma-Aldrich (St. Louis, Mo., USA). RAC was prepared from Avicel by swelling it in phosphoric acid, (Zhang Y H P, Cui J, Lynd L R, & Kuang L R (2006) A transition from cellulose swelling to cellulose dissolution by o-phosphoric acid: Evidence from enzymatic hydrolysis and supramolecular structure. Biomacromolecules 7(2):644-648.). RAC was dissolved in 50 mM phospate buffer (pH 5.0) to a final concentration of 1.5 mg/ml. Copper chloride was added to a final concentration of 2.5 μM and dimethoxy containg reducing agent sinapic acid or syringic acid to a final concentration of 2 mM. LPMO9B (5 μg/ml) with or without PPO2 (5 μg/ml), PPO7 (5 μg/ml) or AbTyr (7.5 U/ml) were added and incubated for 24 h at 50° C. in a head-over-tail rotator in portions of 1 mL total volume (Stuart® rotator, Bibby Scientific LTD, Stone, UK) at 20 rpm. Products were analysed by HPAEC and MALDI-TOF MS as described previously. (Frommhagen M, Sforza S, Westphal A H, Visser J, Hinz S W, Koetsier M J et al. Discovery of the combined oxidative cleavage of plant xylan and cellulose by a new fungal polysaccharide monooxygenase. Biotechnology for Biofuels. 2015; 8:101. doi:10.1186/s13068-015-0284-1). The Activity denoted as “Activity*” represents total release of non-oxidized and C1-oxidized gluco-oligosaccharides from RAC incubated with LPMO9B in the presence of sinapic or syringic acid as a reducing agent and with addition of either AbTyr, PPO7 or PPO2. […] Standard deviations were less than 2%.

B1: PPO6: Myceliophthora thermophila C1 polyphenoloxidase with demethylating activity, mature form SEQ ID NO: 41 (protein, listed as Myceliophthora thermophila)
chain: AVKTVVITATTTVCPLSTRVCHGSSMISQSTNAPCSESTGITGSQSTAVTIPQSTDIISSQFSQFTDTTSSLSTGVACSSSPCPSNSQSTGTTSFESTGTTISQPTAVTNSSSTCLTSSQSTDAPSSESTGITISQSTGVTSSQSMSTPTSKSTAVPSSQSARVSTTSSSAKPSSTTETRPEPTLPNRAYPADIVDKLRDSGVDKLKEYLKSNPSNTGCTLENASIRREWSDLSVAEREEYIAAVKCLQSASPKSSKQQVPGARSRFDDFVATHINQTDSIHYTANFLSWHRYYVWAYEKALREECGYTGFQPYWNWDRYAADPANSPLFSGNSSSLSGNSVNGGCVTTGPFADMKVNLGPGASLAYNPRCLKRNISKSYAAMTTADKTYALITGSADIARFQDTMQAVPGVHAGGHFTIGGDPGGDVYSSPGDPAFWLHHAMIDRVWWIWQTHGLPGRLSEVAGSVAGSSRPGSGKDLVNLGVNGPAVAIENLLNTVGGLDGKMCYIYL
pHopt [1]: 7.0 | T range [1]: 20-50 °C | pH range [1]: 6.0-8.5 | [CuSO4] range [1]: 50 to 1000 µM | Topt [1]: 30 °C | [CuSO4]opt [1]: 200 µM | Conversion of substrates (absorbance at 400 nm) [2]: able to convert syringic acid, sinapic acid and syringol

B2: PPO4: Myceliophthora thermophila C1 polyphenoloxidase with demethylating activity, mature form SEQ ID NO: 37 (protein, listed as Myceliophthora thermophila)
chain: DAVLDLQEKGRPAIDAQLAKSTTCTKEKLQVRREWGDISAEEKKAYIAAMLCIMEKPSRLDPNQFPGAKSRYDDFVVVHMNQTLSIHGTGNFLSWHRYYTWVFERALQEECGYNGTQPYWDWGRWADDPENSPIFDGSDTSLSGNGEYIEHRASGFIPAGNGGGCVKSGPFKDMVVHLGPVAPAIDPAPPANPRRDGYGDNPRCLRRDISNQLSSKYARTQDIVDLITTSADIGTFQTVMQGAGGFGVGPGGMGVHAAGHFTIAGDPGGDFYTSPNDPAFWVHHGMIDRTWTIWQSQDLDNRLQVIAGGSSMMGGPPQTLDDPVDLGVVADKVYPIRDLVSVVDGPFCYVYE
pHopt [1]: 7.0 | T range [1]: 30-60 °C | pH range [1]: 5.0-7.5 | [CuSO4] range [1]: 20 to 1000 µM | Topt [1]: 55 °C | [CuSO4]opt [1]: 200 µM | Conversion of substrates (absorbance at 400 nm) [2]: only able to use syringic acid as a substrate

B3: LPMO9B: Myceliophthora thermophila lytic polysaccharide monooxygenase, mature amino acid sequence SEQ ID NO: 93 (protein, listed as Myceliophthora thermophila)
chain: HATFQALWVDGVDYGAQCARLPASNSPVTDVTSNAIRCNANPSPARGKCPVKAGSTVTVEMHQQPGDRSCSSEAIGGAHYGPVMVYMSKVSDAASADGSSGWFKVFEDGWAKNPSGGSGDDDYWGTKDLNSCCGKMNVKIPADLPSGDYLLRAEALALHTAGSAGGAQFYMTCYQLTVTGSGSASPPTVSFPGAYKATDPGILVNIHAPLSGYTVPGPAVYSGGSTKKAGSACTGCESTCAVGSGPTATVSQSPGSTATSAPGGGGGCTVQKYQQCGGQGYTGCTNCASGSTCSAVSPPYYSQCV
Activity in the absence of a reducing agent ([3]; no reducing agent): no activity was detected | Activity: total release of non-oxidized and C1-oxidized gluco-oligosaccharides from RAC ([3]; reducing agent 3,4-dihydroxy-5-methoxybenzoic acid 2 mM): 100% | Activity: total release of non-oxidized and C1-oxidized gluco-oligosaccharides from RAC ([3]; reducing agent 3,4-dihydroxy-5-methoxycinnamic acid 2 mM): 100% | Activity: total release of non-oxidized and C1-oxidized gluco-oligosaccharides from RAC ([3]; reducing agent 3,4-dihydroxybenzoic acid 2 mM): 100% | Activity: total release of non-oxidized and C1-oxidized gluco-oligosaccharides from RAC ([3]; reducing agent 3-hydroxy-4-methoxycinnamic acid 2 mM): 100% | Activity: total release of non-oxidized and C1-oxidized gluco-oligosaccharides from RAC ([3]; reducing agent 3-methylcatechol 2 mM): 100% | Activity: total release of non-oxidized and C1-oxidized gluco-oligosaccharides from RAC ([3]; reducing agent 4-allyl-2,4-methoxyphenol 2 mM): 100% | Activity: total release of non-oxidized and C1-oxidized gluco-oligosaccharides from RAC ([3]; reducing agent 4-hydroxy-3-methoxyphenylactone 2 mM): 100% | Activity: total release of non-oxidized and C1-oxidized gluco-oligosaccharides from RAC ([3]; reducing agent caffeic acid 2 mM): 100% | Activity: total release of non-oxidized and C1-oxidized gluco-oligosaccharides from RAC ([3]; reducing agent coniferyl aldehyde 2 mM): 100% | Activity: total release of non-oxidized and C1-oxidized gluco-oligosaccharides from RAC ([3]; reducing agent ferulic acid 2 mM): 100% | Activity: total release of non-oxidized and C1-oxidized gluco-oligosaccharides from RAC ([3]; reducing agent gallic acid 2 mM): 100% | Activity: total release of non-oxidized and C1-oxidized gluco-oligosaccharides from RAC ([3]; reducing agent guaiacol 2 mM): 100% | Activity: total release of non-oxidized and C1-oxidized gluco-oligosaccharides from RAC ([3]; reducing agent hesperidin 2 mM): 100% | Activity: total release of non-oxidized and C1-oxidized gluco-oligosaccharides from RAC ([3]; reducing agent homovanillic acid 2 mM): 100% | Activity: total release of non-oxidized and C1-oxidized gluco-oligosaccharides from RAC ([3]; reducing agent vanillic acid 2 mM): 100% | Activity in the absence of a reducing agent ([4]; no reducing agent): no activity was detected | Activity: total release of non-oxidized and C1-oxidized gluco-oligosaccharides from RAC ([4]; reducing agent sinapic acid 2 mM): 100% | Activity: total release of non-oxidized and C1-oxidized gluco-oligosaccharides from RAC ([4]; reducing agent syringic acid 2 mM): 100%
